The text below walks through data of IntAct's records for PubMed 24981741.

B1: Protein LYRIC (Homo sapiens), Q86UE4 (parent)
chain: MAARSWQDELAQQAEEGSARLREMLSVGLGFLRTELGLDLGLEPKRYPGWVILVGTGALGLLLLFLLGYGWAAACAGARKKRRSPPRKREEAAAVPAAAPDDLALLKNLRSEEQKKKNRKKLSEKPKPNGRTVEVAEGEAVRTPQSVTAKQPPEIDKKNEKSKKNKKKSKSDAKAVQNSSRHDGKEVDEGAWETKISHREKRQQRKRDKVLTDSGSLDSTIPGIENTITVTTEQLTTASFPVGSKKNKGDSHLNVQVSNFKSGKGDSTLQVSSGLNENLTVNGGGWNEKSVKLSSQISAGEEKWNSVSPASAGKRKTEPSAWSQDTGDANTNGKDWGRSWSDRSIFSGIGSTAEPVSQSTTSDYQWDVSRNQPYIDDEWSGLNGLSSADPNSDWNAPAEEWGNWVDEERASLLKSQEPIPDDQKVSDDDKEKGEGALPTGKSKKKKKKKKKQGEDNSTAQDTEELEKEIREDLPVNTSKTRPKQEKAFSLKTISTSDPAEVLVKNSQPIKTLPPATSTEPSVILSKSDSDKSSSQVPPILQETDKSKSNTKQNSVPPSQTKSETSWESPKQIKKKKKARRET

The first assay covers variants of B1. Conditions: with snd1_human SND1, Q7KZF4.
snd1_human SND1, Q7KZF4, sequence (Q7KZF4 whole entry): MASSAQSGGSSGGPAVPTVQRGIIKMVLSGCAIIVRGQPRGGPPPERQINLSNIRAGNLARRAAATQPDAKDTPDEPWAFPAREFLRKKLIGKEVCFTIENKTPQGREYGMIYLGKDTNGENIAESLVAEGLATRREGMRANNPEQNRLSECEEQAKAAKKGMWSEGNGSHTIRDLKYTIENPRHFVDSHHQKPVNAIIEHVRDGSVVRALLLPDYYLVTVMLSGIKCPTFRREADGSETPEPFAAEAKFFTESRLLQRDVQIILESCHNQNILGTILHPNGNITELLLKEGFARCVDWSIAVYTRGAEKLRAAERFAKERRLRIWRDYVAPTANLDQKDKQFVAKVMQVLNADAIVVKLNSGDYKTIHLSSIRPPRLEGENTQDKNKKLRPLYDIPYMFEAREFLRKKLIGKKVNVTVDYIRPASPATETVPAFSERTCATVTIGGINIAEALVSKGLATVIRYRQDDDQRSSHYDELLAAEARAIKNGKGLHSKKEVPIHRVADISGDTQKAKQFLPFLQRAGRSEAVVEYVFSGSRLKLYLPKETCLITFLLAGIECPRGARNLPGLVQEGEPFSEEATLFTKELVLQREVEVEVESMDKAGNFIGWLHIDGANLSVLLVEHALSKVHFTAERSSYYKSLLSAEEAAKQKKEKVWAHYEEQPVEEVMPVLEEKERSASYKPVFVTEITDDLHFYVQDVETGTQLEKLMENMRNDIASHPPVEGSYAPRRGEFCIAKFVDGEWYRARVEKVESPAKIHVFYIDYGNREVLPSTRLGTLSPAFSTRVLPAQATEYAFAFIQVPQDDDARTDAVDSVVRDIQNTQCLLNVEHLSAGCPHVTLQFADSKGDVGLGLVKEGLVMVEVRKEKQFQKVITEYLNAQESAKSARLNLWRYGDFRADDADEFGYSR
As to MAARSWQDELAQQAEEGSARLREMLSVGLGFLRTELGLDLGLEPKRYPGWVILVGTGALGLLLLFLLGYGWAAACAGARKKRRSPPRKREEAAAVPAAAPDDLALLKNLRSEEQKKKNRKKLSEKPKPNGRTVEVAEGEAVRTPQSVTAKQPPEIDKKNEKSKKNKKKSKSDAKAVQNSSRHDGKEVDEGAWETKISHREKRQQRKRDKVLTDSGSLDSTIPGIENTITVTTEQLTTASFPVGSKKNKGDSHLNVQVSNFKSGKGDSTLQVSSGLNENLTVNGGGWNEKSVKLSSQISAGEEKWNSVSPASAGKRKTEPSAWSQDTGDANTNGKDWGRSWSDRSIFSGIGSTAEPVSQSTTSDYQWDVSRNQPYIDDEWSGLNGLSSARPNSRDNAPAEEWGNWVDEERASLLKSQEPIPDDQKVSDDDKEKGEGALPTGKSKKKKKKKKKQGEDNSTAQDTEELEKEIREDLPVNTSKTRPKQEKAFSLKTISTSDPAEVLVKNSQPIKTLPPATSTEPSVILSKSDSDKSSSQVPPILQETDKSKSNTKQNSVPPSQTKSETSWESPKQIKKKKKARRET [D389R;D393R;W394D], the “effect of a mutation on the interaction” value was “disrupting interaction strength”.
Still for that read-out and setting: as for MAARSWQDELAQQAEEGSARLREMLSVGLGFLRTELGLDLGLEPKRYPGWVILVGTGALGLLLLFLLGYGWAAACAGARKKRRSPPRKREEAAAVPAAAPDDLALLKNLRSEEQKKKNRKKLSEKPKPNGRTVEVAEGEAVRTPQSVTAKQPPEIDKKNEKSKKNKKKSKSDAKAVQNSSRHDGKEVDEGAWETKISHREKRQQRKRDKVLTDSGSLDSTIPGIENTITVTTEQLTTASFPVGSKKNKGDSHLNVQVSNFKSGKGDSTLQVSSGLNENLTVNGGGWNEKSVKLSSQISAGEEKWNSVSPASAGKRKTEPSAWSQDTGDANTNGKDWGRSWSDRSIFSGIGSTAEPVSQSTTSDYQWDVSRNQPYIDDEWSGLNGLSSADPNSDDNAPAEEWGNWVDEERASLLKSQEPIPDDQKVSDDDKEKGEGALPTGKSKKKKKKKKKQGEDNSTAQDTEELEKEIREDLPVNTSKTRPKQEKAFSLKTISTSDPAEVLVKNSQPIKTLPPATSTEPSVILSKSDSDKSSSQVPPILQETDKSKSNTKQNSVPPSQTKSETSWESPKQIKKKKKARRET [W394D], the entry is “disrupting interaction strength”.
For MAARSWQDELAQQAEEGSARLREMLSVGLGFLRTELGLDLGLEPKRYPGWVILVGTGALGLLLLFLLGYGWAAACAGARKKRRSPPRKREEAAAVPAAAPDDLALLKNLRSEEQKKKNRKKLSEKPKPNGRTVEVAEGEAVRTPQSVTAKQPPEIDKKNEKSKKNKKKSKSDAKAVQNSSRHDGKEVDEGAWETKISHREKRQQRKRDKVLTDSGSLDSTIPGIENTITVTTEQLTTASFPVGSKKNKGDSHLNVQVSNFKSGKGDSTLQVSSGLNENLTVNGGGWNEKSVKLSSQISAGEEKWNSVSPASAGKRKTEPSAWSQDTGDANTNGKDWGRSWSDRSIFSGIGSTAEPVSQSTTSDYQWDVSRNQPYIDDEWSGLNGLSSADPNSDWNAPARRDGNWVDEERASLLKSQEPIPDDQKVSDDDKEKGEGALPTGKSKKKKKKKKKQGEDNSTAQDTEELEKEIREDLPVNTSKTRPKQEKAFSLKTISTSDPAEVLVKNSQPIKTLPPATSTEPSVILSKSDSDKSSSQVPPILQETDKSKSNTKQNSVPPSQTKSETSWESPKQIKKKKKARRET [E399R;E400R;W401D], the “effect of a mutation on the interaction” value is listed as “disrupting interaction strength”.
As to MAARSWQDELAQQAEEGSARLREMLSVGLGFLRTELGLDLGLEPKRYPGWVILVGTGALGLLLLFLLGYGWAAACAGARKKRRSPPRKREEAAAVPAAAPDDLALLKNLRSEEQKKKNRKKLSEKPKPNGRTVEVAEGEAVRTPQSVTAKQPPEIDKKNEKSKKNKKKSKSDAKAVQNSSRHDGKEVDEGAWETKISHREKRQQRKRDKVLTDSGSLDSTIPGIENTITVTTEQLTTASFPVGSKKNKGDSHLNVQVSNFKSGKGDSTLQVSSGLNENLTVNGGGWNEKSVKLSSQISAGEEKWNSVSPASAGKRKTEPSAWSQDTGDANTNGKDWGRSWSDRSIFSGIGSTAEPVSQSTTSDYQWDVSRNQPYIDDEWSGLNGLSSADPNSDWNAPAEEDGNWVDEERASLLKSQEPIPDDQKVSDDDKEKGEGALPTGKSKKKKKKKKKQGEDNSTAQDTEELEKEIREDLPVNTSKTRPKQEKAFSLKTISTSDPAEVLVKNSQPIKTLPPATSTEPSVILSKSDSDKSSSQVPPILQETDKSKSNTKQNSVPPSQTKSETSWESPKQIKKKKKARRET [W401D], the “effect of a mutation on the interaction” value is recorded as “decreasing interaction strength”.

The variants in a further assay derive from B1. Particulars: with snd1_human SND1, Q7KZF4. This is another data set of the same source.
Turning to MAARSWQDELAQQAEEGSARLREMLSVGLGFLRTELGLDLGLEPKRYPGWVILVGTGALGLLLLFLLGYGWAAACAGARKKRRSPPRKREEAAAVPAAAPDDLALLKNLRSEEQKKKNRKKLSEKPKPNGRTVEVAEGEAVRTPQSVTAKQPPEIDKKNEKSKKNKKKSKSDAKAVQNSSRHDGKEVDEGAWETKISHREKRQQRKRDKVLTDSGSLDSTIPGIENTITVTTEQLTTASFPVGSKKNKGDSHLNVQVSNFKSGKGDSTLQVSSGLNENLTVNGGGWNEKSVKLSSQISAGEEKWNSVSPASAGKRKTEPSAWSQDTGDANTNGKDWGRSWSDRSIFSGIGSTAEPVSQSTTSDYQWDVSRNQPYIDDEWSGLNGLSSARPNSRDNAPAEEWGNWVDEERASLLKSQEPIPDDQKVSDDDKEKGEGALPTGKSKKKKKKKKKQGEDNSTAQDTEELEKEIREDLPVNTSKTRPKQEKAFSLKTISTSDPAEVLVKNSQPIKTLPPATSTEPSVILSKSDSDKSSSQVPPILQETDKSKSNTKQNSVPPSQTKSETSWESPKQIKKKKKARRET [D389R;D393R;W394D], the “effect of a mutation on the interaction” value is listed as “disrupting interaction strength”.
